This note sets out measurements from patent US20240425569A1 (VISTERRA, published 2024).

Experiment [1] deals with T1, EDIII-DV4 (E protein domain III of dengue virus serotype DV-4) (dengue virus serotype DV-4, UniProt P09866 572-679).
T1 construct: also called DENV-4

Experiment [2] addresses T2, EDIII-DV3 (E protein domain III of dengue virus serotype DV-3) (dengue virus serotype DV-3, UniProt P27915 571-678).
T2 construct: also called DENV-3; EDIII of DV-3

Experiment [3] has as its target T1, EDIII-DV4 (E protein domain III of …). The source holds these as a separate data set.
For experiment [4], the target named is T3, EDIII-DV1 (E protein domain III of dengue virus serotype DV-1) (dengue virus serotype DV-1, UniProt P17763 573-680).
T3 construct: also called DENV-1; EDIII of DV-1
T3 chain: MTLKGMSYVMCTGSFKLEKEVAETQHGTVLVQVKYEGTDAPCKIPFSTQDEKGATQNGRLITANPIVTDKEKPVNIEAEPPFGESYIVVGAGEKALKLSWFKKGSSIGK

In experiment [5] the target is T1, EDIII-DV4 (E protein domain III of …). The source holds these as a separate data set.
The target in experiment [6] is T2, EDIII-DV3 (E protein domain III of …). The source holds these as a separate data set.
Experiment [7] deals with T1, EDIII-DV4 (E protein domain III of …). This is another data set of the same source.
In experiment [8] the target is T4, EDIII-DV2 (E protein domain III of dengue virus serotype DV-2) (dengue virus serotype DV-2, UniProt P14337 573-677).
T4 construct: also called DENV-2; EDIII of DV-2
T4 sequence (P14337 573-677, tags left off): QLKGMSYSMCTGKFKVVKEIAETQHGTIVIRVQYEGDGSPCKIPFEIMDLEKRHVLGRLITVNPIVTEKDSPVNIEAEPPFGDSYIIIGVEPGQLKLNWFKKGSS

Where two headings read alike, the source gives them in different places. Some results are limits rather than exact numbers.

T2 sequence (P27915 571-678, tags left off): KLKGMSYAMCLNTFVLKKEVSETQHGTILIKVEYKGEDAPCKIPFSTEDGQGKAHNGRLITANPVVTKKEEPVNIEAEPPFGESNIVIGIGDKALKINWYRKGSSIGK

B1: antibody B48 (antibody, V domains shown)
VH: QVQLVQSGAEVKKPGASVKVSCKAGFNIKDTYMSWVRQAPEQGLEWMGRIDPENGDTKYDPKLQGRVTMTADTSTNTAYMELRSLRSDDTAVYYCARGWEGFAYWGQGTLVTVSS
VL: DIVMTQSPASLAVSLGERATISCRASENVDKYGNSFMHWYQQKPGQPPKLLIYRASELQWGVPDRFSGSGSGTDFTLTISSLQAEDVAVYYCQRSNEVPWTFGQGTKLEIK
notes: also called mAb B48
A word on the Kd: it is the constant that tells how readily two partners part at equilibrium. Lower therefore signals higher affinity. Take B1: the Kd in experiment [1] worked out at 19.3 nM; in experiment [2], 8 nM; in experiment [3] it was 27.6 nM; in experiment [4] it was 0.123 nM.

B2: antibody A48 (antibody, V domains shown)
VH: QVQLVQSGAEVKKPGASVKVSCKASGFNIKDTYMSWVRQAPEQGLEWMGRIDPENGDTKYDPKLQGRVTMTADTSTNTAYMELRSLRSDDTAVYYCARGWEGFAYWGQGTLVTVSS
VL: DIVMTQSPASLAVSLGERATISCRASENVDKYGNSFMHWYQQKPGQPPKLLIYRASELQWGVPDRFSGSGSGTDFTLTISSLQAEDVAVYYCQRSNEVPWTFGQGTKLEIK
For B2, the values for the Kd in experiment [2] and in experiment [4] were 5.8 nM and under 0.1 nM, respectively.

B3: B48+InsE6 (antibody, V domains shown)
VH: VQLVEQSGAEVKKPGASVKVSCKAGFNIKDTYMSWVRQAPEQGLEWMGRIDPENGDTKYDPKLQGRVTMTADTSTNTAYMELRSLRSDDTAVYYCARGWEGFAYWGQGTLVTVSS
VL: DIVMTQSPASLAVSLGERATISCRASENVDKYGNSFMHWYQQKPGQPPKLLIYRASELQWGVPDRFSGSGSGTDFTLTISSLQAEDVAVYYCQRSNEVPWTFGQGTKLEIK
In experiment [1], B3 returned a Kd of 26.9 nM.

B4: antibody D108 (antibody, V domains shown)
VH: QVQLVQSGAEVKKPGASVKVSCKASYWNIKDVYMSWVRQAPEQGLEWMGRIDPENGDTKYDPKLQGRVTMTADTSTNTAYMELRSLRSDDTAVYYCARGWEGFAYWGQGTLVTVSS
VL: DIVMTQSPASLAVSLGERATISCRASENVDKYGNSFMHWYQQKPGQPPKLLIYRASELQWGVPDRFSGSGSGTDFTLTISSLQAEDVAVYYCQRSNEVPWTFGQGTKLEIK
B4: in experiment [5], the Kd was found to be 18.3 nM. In other words, the double-digit nanomolar range.

B5: D178 (antibody, V domains shown)
VH: QVQLVQSGAEVKKPGASVKVSCKAGFNIKDVYMSWVRQAPEQGLEWMGRIDPENGDTKYDPKLQGRVTMTADTSTNTAYMELRSLRSDDTAVYYCVRGWEGFAYWGQGTLVTVSS
VL: DIVMTQSPASLAVSLGERATISCRASENVDKYGNSFMHWYQQKPGQPPKLLIYRASELQWGVPDRFSGSGSGTDFTLTISSLQAEDVAVYYCQRSNEVPWTFGQGTKLEIK
Consider B5, for which the Kd in experiment [6] was found to be 1.05 nM; in experiment [7] it was 4.67 nM.

B6: A48+InsE6 (antibody, V domains shown)
VH: VQLVEQSGAEVKKPGASVKVSCKASGFNIKDVYMSWVRQAPEQGLEWMGRIDPENGDTKYDPKLQGRVTMTADTSTNTAYMELRSLRSDDTAVYYCARGWEGFAYWGQGTLVTVSS
VL: DIVMTQSPASLAVSLGERATISCRASENVDKYGNSFMHWYQQKPGQPPKLLIYRASELQWGVPDRFSGSGSGTDFTLTISSLQAEDVAVYYCQRSNEVPWTFGQGTKLEIK
In experiment [1], B6 yielded a Kd of 19.5 nM.

B7: C128 (antibody, V domains shown)
VH: QVQLVQSGAEVKKPGASVKVSCKASGFNIKDVYMSWVRQAPEQGLEWMGRIDPENGDTKYDPKLQGRVTMTADTSTNTAYMELRSLRSDDTAVYYCSRGWEGFAYWGQGTLVTVSS
VL: DIVMTQSPASLAVSLGERATISCRASENVDKYGNSFMHWYQQKPGQPPKLLIYRASELQWGVPDRFSGSGSGTDFTLTISSLQAEDVAVYYCQRSNEVPWTFGQGTKLEIK
In the case of B7, the Kd turned out to be 0.63 nM in experiment [6] and 18.7 nM in experiment [7].

B8: A48+V2L (antibody, V domains shown)
VH: QLQLVQSGAEVKKPGASVKVSCKASGFNIKDVYMSWVRQAPEQGLEWMGRIDPENGDTKYDPKLQGRVTMTADTSTNTAYMELRSLRSDDTAVYYCARGWEGFAYWGQGTLVTVSS
VL: DIVMTQSPASLAVSLGERATISCRASENVDKYGNSFMHWYQQKPGQPPKLLIYRASELQWGVPDRFSGSGSGTDFTLTISSLQAEDVAVYYCQRSNEVPWTFGQGTKLEIK
For the molecule B8, in experiment [1], the Kd came out at 21.3 nM.

B9: D168 (antibody, V domains shown)
VH: QVQLVQSGAEVKKPGASVKVSCKASGYNIKDVYMSWVRQAPEQGLEWMGRIDPENGDTKYDPKLQGRVTMTADTSTNTAYMELRSLRSDDTAVYYCARGWEGFAYWGQGTLVTVSS
VL: DIVMTQSPASLAVSLGERATISCRASENVDKYGNSFMHWYQQKPGQPPKLLIYRASELQWGVPDRFSGSGSGTDFTLTISSLQAEDVAVYYCQRSNEVPWTFGQGTKLEIK
In experiment [5], B9 had a Kd of 324 nM.

B10: antibody D148 (antibody, V domains shown)
VH: QVQLVQSGAEVKKPGASVKVSCKASYFNIKDVYMSWVRQAPEQGLEWMGRIDPENGDTKYDPKLQGRVTMTADTSTNTAYMELRSLRSDDTAVYYCARGWEGFAYWGQGTLVTVSS
VL: DIVMTQSPASLAVSLGERATISCRASENVDKYGNSFMHWYQQKPGQPPKLLIYRASELQWGVPDRFSGSGSGTDFTLTISSLQAEDVAVYYCQRSNEVPWTFGQGTKLEIK
B10: in experiment [5], the affinity, expressed as Kd, was 18 nM.

B11: antibody D128 (antibody, V domains shown)
VH: QVQLVQSGAEVKKPGASVKVSCKASAWNIKDVYMSWVRQAPEQGLEWMGRIDPENGDTKYDPKLQGRVTMTADTSTNTAYMELRSLRSDDTAVYYCARGWEGFAYWGQGTLVTVSS
VL: DIVMTQSPASLAVSLGERATISCRASENVDKYGNSFMHWYQQKPGQPPKLLIYRASELQWGVPDRFSGSGSGTDFTLTISSLQAEDVAVYYCQRSNEVPWTFGQGTKLEIK
In experiment [5], B11 gave a Kd of 20.8 nM.

B12: A68 (A48 + A98V) (antibody, V domains shown)
VH: QVQLVQSGAEVKKPGASVKVSCKASGFNIKDTYMSWVRQAPEQGLEWMGRIDPENGDTKYDPKLQGRVTMTADTSTNTAYMELRSLRSDDTAVYYCVRGWEGFAYWGQGTLVTVSS
VL: DIVMTQSPASLAVSLGERATISCRASENVDKYGNSFMHWYQQKPGQPPKLLIYRASELQWGVPDRFSGSGSGTDFTLTISSLQAEDVAVYYCQRSNEVPWTFGQGTKLEIK
As to B12, the Kd is 3 nM in experiment [2], under 0.1 nM in experiment [8] and 13.1 nM in experiment [3].

B13: B48+V2L (antibody, V domains shown)
VH: QLQLVQSGAEVKKPGASVKVSCKAGFNIKDTYMSWVRQAPEQGLEWMGRIDPENGDTKYDPKLQGRVTMTADTSTNTAYMELRSLRSDDTAVYYCARGWEGFAYWGQGTLVTVSS
VL: DIVMTQSPASLAVSLGERATISCRASENVDKYGNSFMHWYQQKPGQPPKLLIYRASELQWGVPDRFSGSGSGTDFTLTISSLQAEDVAVYYCQRSNEVPWTFGQGTKLEIK
Take B13: binding in experiment [1] was characterised by a dissociation constant (Kd) of 23.6 nM. This counts as double-digit nanomolar.

B14: C41 (antibody, V domains shown)
VH: VKLLEQSGAELVKPGASVRLSCTASGFNIKDVYMSWVKQRPEQGLEWIGRIDPENGDTKYDPKFQGKATITADTSSNTAYLHLSSLTSGDTAVYYCSRGWEGFAYWGQGTLVTVSA
VL: ELVMTQTPASLAVSLGQRATISCRASENVDKYGNSFMHWYQQKAGQPPKLLIYRASELQWGIPARFSGSGSRTDFTLTINPVEADDVATYFCQRSNEVPWTFGGGTKLEIK
For B14, in experiment [1], the Kd was 2.56 nM.
